Results as given in article PMC3645732, “A Differential Redox Regulation of the Pathways Metabolizing Glyceraldehyde-3-Phosphate Tunes the Production of Reducing Power in the Cytosol of Plant Cells” (International Journal of Molecular Sciences, 2013).

Substrate: NC(=O)c1ccc[n+]([C@@H]2O[C@H](COP(=O)([O-])OP(=O)(O)OC[C@H]3O[C@@H](n4cnc5c(N)ncnc54)[C@H](O)[C@@H]3O)[C@@H](O)[C@H]2O)c1
Assay: purified protein
Assay type: biochemical, Triticum aestivum

B1: Ga3PDHase (phosphorylating NAD+-dependent glyceraldehyde-3-phosphate dehydrogenase, EC 1.2.1.12) (Triticum aestivum) (protein)
chain: MGKIKIGINGFGRIGRLVARVALQSPDVELVAVNDPFITTDYMTYMFKYDTVHGQWKHHEVKVKDSKTLLFGEKEVAVFGCRNPEEIPWAAAGAEYVVESTGVFTDKDKAAAHIKGGAKKVIISAPSKDAPMFVCGVNEKEYKSDIDIVSNASCTTNCLAPLAKVINDRFGIVEGLMTTVHAMTATQKTVDGPSSKDWRGGRAASFNIIPSSTGAAKAVGKVLPELNGKLTGMAFRVPTVDVSVVDLTVRLAKPATYDQIKAAIKEESEGNLKGILGYVDEDLVSTDFQGDNRSSIFDAKAGIALNDHFVKLVSWYDNEWGYSTRVVDLIRHMHSTK
notes: recombinant wheat gapC (NCBI EF592180), homotetramer, E. coli
**Q.** B1 was tested. Which K0.5 did it give?
**A.** 136 µM
